This is an account of results in article PMC6017926, “CpG Methylation Changes G-Quadruplex Structures Derived from Gene Promoters and Interaction with VEGF and SP1”.

Data set [1] has as its target GST-SP1 (UniProt P08047). Briefly: SPR. The note with it: SPR VEGF165: DNA folded in 10 mM Tris-HCl, 100 mM KCl, pH 7.4, 25 °C, ELONA: DNA folded in TK (100 mM KCl) or 100 mM LiCl buffer, binding in TBS (10 mM …).
For data set [2], the target named is GST-SP1 (UniProt P08047). As to the kind of experiment: ELONA. Conditions: 5-methylcytosine at CpG (underlining lost in text; CpG C at 5, 10, 16); SPR VEGF165: DNA folded in 10 mM Tris-HCl, 100 mM KCl, pH 7.4, 25 °C; ELONA: DNA folded in TK (100 mM KCl) or 100 mM LiCl buffer, binding in TBS (10 mM …).
The target in a further data set is VEGF165 (UniProt P15692-4 27-191). As to the kind of experiment: SPR; 100 mM K+; SPR VEGF165: DNA folded in 10 mM Tris-HCl, 100 mM KCl, pH 7.4, 25 °C; ELONA: DNA folded in TK (100 mM KCl) or 100 mM LiCl buffer, binding in TBS (10 mM Tris-HCl, 150 mM NaCl, 5 mM KCl), 90 µM ZnCl2, pH 7.3, RT; SPR GST-SP1: captured by anti-GST on CM5, single-cycle kinetics 10-160 nM DNA, running buffer not stated. Conditions: chain copies: 2, label: 5' biotin for ELONA.
Sequence of VEGF165 (P15692 other isoform, or with tags, fused parts or gaps): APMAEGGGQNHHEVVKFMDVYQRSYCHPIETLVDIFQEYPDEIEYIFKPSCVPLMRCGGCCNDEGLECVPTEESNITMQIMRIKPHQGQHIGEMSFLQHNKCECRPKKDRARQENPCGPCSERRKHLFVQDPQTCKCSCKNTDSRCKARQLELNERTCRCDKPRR

Sequence of GST-SP1 (P08047 whole entry): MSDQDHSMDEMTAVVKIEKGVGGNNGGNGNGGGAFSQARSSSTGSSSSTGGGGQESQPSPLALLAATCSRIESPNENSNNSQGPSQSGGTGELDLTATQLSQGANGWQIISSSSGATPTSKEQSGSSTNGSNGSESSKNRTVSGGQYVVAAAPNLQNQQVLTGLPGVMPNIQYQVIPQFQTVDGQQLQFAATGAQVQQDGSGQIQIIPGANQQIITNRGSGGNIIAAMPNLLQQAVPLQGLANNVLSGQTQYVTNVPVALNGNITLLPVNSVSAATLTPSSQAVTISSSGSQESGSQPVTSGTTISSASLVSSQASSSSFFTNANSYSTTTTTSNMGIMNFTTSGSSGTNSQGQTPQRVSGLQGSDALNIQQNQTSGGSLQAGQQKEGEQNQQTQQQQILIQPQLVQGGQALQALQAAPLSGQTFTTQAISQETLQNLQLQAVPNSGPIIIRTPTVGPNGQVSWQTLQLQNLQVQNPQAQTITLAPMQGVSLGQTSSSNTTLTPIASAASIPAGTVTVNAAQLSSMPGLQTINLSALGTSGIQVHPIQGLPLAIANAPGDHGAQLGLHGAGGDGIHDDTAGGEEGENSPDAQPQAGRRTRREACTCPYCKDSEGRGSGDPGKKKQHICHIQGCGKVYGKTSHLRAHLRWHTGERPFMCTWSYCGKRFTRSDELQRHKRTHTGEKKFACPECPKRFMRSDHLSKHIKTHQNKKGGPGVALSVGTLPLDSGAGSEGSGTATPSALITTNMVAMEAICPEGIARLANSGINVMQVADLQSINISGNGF

As a reminder, the Kd is the constant that tells how readily two partners part at equilibrium. The low end stands for tighter binding, the high end for weaker binding. On to “CGGGCGCGGGAGGAAGGGGGCGGGAGC [BCL-2 G4 methylated]”, for which the dissociation constant Kd with GST-SP1 [1] (5-methylcytosine at CpG (underlining lost in text; CpG C at 1, 5, 7, 21)) came out at 28 nM.

As to “CGGGCGCGGGAGGAAGGGGGCGGGAGC [BCL-2 G4 unmethylated]”, the Kd with GST-SP1 [1] was determined as 12 nM.

As to “CGGGGCGGGGCGGGGGCGGGGGCG [HRAS2 G4 methylated]”, in the data set with GST-SP1 [1] (5-methylcytosine at CpG (underlining lost in text; CpG C at 1, 6, 11, 17, 23)), the Kd came to 27 nM.

In the case of “CGGGGCGGGGCGGGGGCGGGGGCG [HRAS2 G4 unmethylated]”, the Kd with GST-SP1 [1] is 10 nM.

Turning to “GGCGAGGAGGGGCGTGGCCGGC [c-KIT G4 methylated]”, the Kd with GST-SP1 [1] (5-methylcytosine at CpG (underlining lost in text; CpG C at 3, 13, 19)) turned out to be 11 nM.

For the molecule “GGCGAGGAGGGGCGTGGCCGGC [c-KIT G4 unmethylated]”, in the data set with GST-SP1 [1], the Kd was found to be 16 nM.

Molecule “GGGGCGGGCCGGGGGCGGGG [VEGF G4 methylated]” came in with a Kd with GST-SP1 [1] (5-methylcytosine at CpG (underlining lost in text; CpG C at 5, 10, 16)) of 11 nM. In the data set with GST-SP1 [2], this molecule displayed a binding signal (fold signal vs unmethylated) of 1.5.

Consider “GGGGCGGGCCGGGGGCGGGG [VEGF G4 unmethylated]”, for which the Kd with GST-SP1 [1] is 14 nM.

“TCGGGTTGCGGGCGCAGGGCACGGGCG [HRAS1 G4 methylated]” registered a Kd in the data set with GST-SP1 [1] (5-methylcytosine at CpG (underlining lost in text; CpG C at 2, 9, 13, 22, 26)) of 36 nM.

On to “TCGGGTTGCGGGCGCAGGGCACGGGCG [HRAS1 G4 unmethylated]”, for which the equilibrium dissociation constant (Kd) with GST-SP1 [1] was determined as 10 nM.

As for GGGGCGGGCCGGGGGCGGGG (structured_DNA) [VEGF G4 unmethylated], the Kd with VEGF165 (G4, parallel in K+) stood at 13 ± 0.43 nM.

In the case of GGGGCGGGCCGGGGGCGGGG (structured_DNA, 5-methylcytosine at CpG (underlining lost in text; CpG C at 5, 10, 16)) [VEGF G4 methylated], the Kd with VEGF165 (G4, altered topology) came to 25 ± 5.7 nM.
